# Legend:
# gp120 (bead-conjugated) = test: Fc Array (multiplexed bead assay, anti-huIgG-PE detection); details: variants incubated with gp120-coated microspheres at equal concentrations; read off a plot
# [1] = target: tetrameric FcγRIII detection reagent (UniProt P08637); test: Fc Array (multiplexed bead assay, tetrameric FcγRIII detection); details: variants incubated with gp120-coated microspheres at equal concentrations; read off a plot
# Chain of UniProt P08637 (P08637 17-254): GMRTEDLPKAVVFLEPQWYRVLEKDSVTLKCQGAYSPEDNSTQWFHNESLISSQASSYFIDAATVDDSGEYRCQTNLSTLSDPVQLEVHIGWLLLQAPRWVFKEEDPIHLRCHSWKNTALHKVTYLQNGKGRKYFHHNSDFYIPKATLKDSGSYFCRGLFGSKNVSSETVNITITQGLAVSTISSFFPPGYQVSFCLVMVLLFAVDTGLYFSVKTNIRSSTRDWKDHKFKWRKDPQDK
Substance,response (gp120 (bead-conjugated)) [MFI],response [1] [MFI]
b12 SD/IE/AL,13000,2800
b12 S267G,14000,80
b12 D270E,14000,110
b12 S239A,13000,110
b12 I332E,13000,320
b12 IE/SD/GA,13000,1100
b12 R292A,13000,140
b12 IE/SD,14000,2000
b12 K338A,13000,110
b12 G236A,14000,59
b12 S298A,14000,96
